Here are results for three molecules from patent publication US20190256599A1 (GlaxoSmithKline, published 2019).

T1: human ICOS ligand (B7-H2) (human, UniProt O75144 19-258, limits assumed)
T1 construct: also called native ICOS-L; CD275
T1 sequence (looked up): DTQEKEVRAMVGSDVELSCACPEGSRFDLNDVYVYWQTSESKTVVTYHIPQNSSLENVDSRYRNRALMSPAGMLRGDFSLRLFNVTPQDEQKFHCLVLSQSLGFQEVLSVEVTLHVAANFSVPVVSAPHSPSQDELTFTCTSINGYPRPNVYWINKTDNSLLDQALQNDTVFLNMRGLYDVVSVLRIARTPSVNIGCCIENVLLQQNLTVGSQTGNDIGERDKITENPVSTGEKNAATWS

T2: human ICOS on cells (human, UniProt Q9Y6W8 21-199)
T2 sequence (looked up): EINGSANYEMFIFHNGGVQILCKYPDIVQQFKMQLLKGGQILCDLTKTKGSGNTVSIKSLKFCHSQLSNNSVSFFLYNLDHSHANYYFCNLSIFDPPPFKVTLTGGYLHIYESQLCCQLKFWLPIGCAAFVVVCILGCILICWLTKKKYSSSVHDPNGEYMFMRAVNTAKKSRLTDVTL

B1: recombinant ICOS protein (R&D Systems) (receptor, human, UniProt Q9Y6W8 21-141, looked up)
chain: EINGSANYEMFIFHNGGVQILCKYPDIVQQFKMQLLKGGQILCDLTKTKGSGNTVSIKSLKFCHSQLSNNSVSFFLYNLDHSHANYYFCNLSIFDPPPFKVTLTGGYLHIYESQLCCQLKF
notes: Bought; also called ICOS receptor
B2: H2L5 IgG4PE (antibody, V domains shown)
VH: QVQLVQSGAEVKKPGSSVKVSCKASGYTFTDYAMHWVRQAPGQGLEWMGLISIYSDHTNYNQKFQGRVTITADKSTSTAYMELSSLRSEDTAVYYCGRNNYGNYGWYFDVWGQGTTVTVSS
VL: EIVLTQSPATLSLSPGERATLSCSASSSVSYMHWYQQKPGQAPRLLIYDTSKLASGIPARFSGSGSGTDYTLTISSLEPEDFAVYYCFQGSGYPYTFGQGTKLEIK
notes: Humanized variant of murine clone 422.2; human IgG4 with S228P and L235E (EU numbering), called IgG4PE; also called H2L5 hIgG4PE; ICOS IgG4PE
B3: rabbit Fc-tagged recombinant human ICOS (Fc fusion, UniProt Q9Y6W8 21-140, looked up, not shown: a dimerising Fc or GST)
chain: EINGSANYEMFIFHNGGVQILCKYPDIVQQFKMQLLKGGQILCDLTKTKGSGNTVSIKSLKFCHSQLSNNSVSFFLYNLDHSHANYYFCNLSIFDPPPFKVTLTGGYLHIYESQLCCQLK
notes: Generated in-house; also called dimeric human ICOS; Fc-fusion version of the recombinant ICOS protein

Assay [1] concerns the target T1, human ICOS ligand (B7-H2). The assay can be described thus: MSD plate assay: 1 µg/mL human ICOS ligand (B7-H2) on plate-coated recombinant ICOS, detected with biotinylated anti-ICOS-L and sulfo-tag streptavidin. The protocol:
(§1) MSD plates were incubated overnight at 4° C. with 10 μg/mL recombinant ICOS protein (R&D Systems) diluted in PBS. […] Sulfo-tagged streptavidin at 10 μg/mL in Diluent 100 was used for detection of the biotinylated ligand. All incubations were at room temperature for one hour on a plate shaker unless otherwise noted. The plates were read immediately following MSD Readbuffer addition on a MSD MESO Quick Plex SQ 120 and data analyzed on MSD workbench software (Meso Scale Discovery).

The target of assay [2] is rabbit Fc-tagged recombinant Cynomolgus ICOS (cynomolgus macaque). Briefly: SPR, Biacore T200, Fc-tagged recombinant cynomolgus ICOS, 1:1 kinetics model. (In SPR one partner is held on a chip, and binding of the other changes the refractive index at the surface.)
In assay [3] the target is B3. Briefly: Biacore (SPR), column HUMAN ka (1/Ms). From the text: (§2) The ICOS binding data was fitted to a 1:1 kinetics model using the T200 data analysis software.
For assay [4], the target named is B3. Briefly: SPR, Biacore T200, Fc-tagged recombinant human ICOS, 1:1 kinetics model.
Source text: as §2

The target of assay [5] is rabbit Fc-tagged recombinant Cynomolgus ICOS (cynomolgus macaque). Briefly: Biacore (SPR), column MONKEY kd (1/s).
The target of assay [6] is B3. Briefly: Biacore (SPR), column HUMAN kd (1/s).
Source text: as §2

Assay [7] addresses B3. The assay can be described thus: BIAcore target capture, capture level hICOS 39.8 RU, Rmax 40.5 RU.
Assay [8] addresses human FcγR IIa (R131) (human) (UniProt P12318). Briefly: SPR (ProteOn XPR36; table title says BIAcore), His-tagged FcγR captured, antibody as analyte, equilibrium model.
The target of a further assay is human FcγR I (human) (UniProt P12314). The description is as above.
Sequence of human FcγR I (human) (P12314 16-288 limits assumed): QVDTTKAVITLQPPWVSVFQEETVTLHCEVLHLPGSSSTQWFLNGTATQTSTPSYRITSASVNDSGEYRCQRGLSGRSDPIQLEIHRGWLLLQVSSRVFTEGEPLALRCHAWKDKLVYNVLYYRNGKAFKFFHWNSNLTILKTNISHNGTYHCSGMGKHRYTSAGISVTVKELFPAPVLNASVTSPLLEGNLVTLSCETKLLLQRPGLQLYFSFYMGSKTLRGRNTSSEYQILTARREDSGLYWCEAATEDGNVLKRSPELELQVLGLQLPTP
A further assay concerns the target human FcγR IIb (human) (UniProt P31994). The description is as above.
Assay [9] has as its target B1. The assay can be described thus: MSD competition assay: plate-coated recombinant ICOS, H2L5 IgG4PE titrated against 1 µg/mL human ICOS ligand (B7-H2); inhibition is partial. The protocol: as §1
The target in assay [10] is rabbit Fc-tagged recombinant Cynomolgus ICOS (cynomolgus macaque). The assay can be described thus: Biacore (SPR), column MONKEY ka (1/Ms).
The target in assay [11] is B1. Briefly: MSD competition assay on plate-coated ICOS; blocked ligand: human ICOS ligand at 1 ug/mL. The method, then:
MSD plates were incubated overnight at 4° C. with 10 μg/mL recombinant ICOS protein (R&D Systems) diluted in PBS. […] Sulfo-tagged streptavidin at 10 μg/mL in Diluent 100 was used for detection of the biotinylated ligand. All incubations were at room temperature for one hour on a plate shaker unless otherwise noted. The plates were read immediately following MSD Read buffer addition on a MSD MESO Quick Plex SQ 120 and data analyzed on MSD workbench software (Meso-Scale, Rockville, Md.).

The next assay deals with T2, human ICOS on cells. The assay can be described thus: cell-based or functional assay.
Assay [12] has as its target B3. The assay can be described thus: SPR, Biacore; affinity of H2L5 for dimeric human ICOS against that of ICOS-L.
For assay [13], the target named is B3. Briefly: BIAcore target capture, capture level hICOS 23.7 RU, Rmax 26.5 RU.
Assay [14] deals with T1, human ICOS ligand (B7-H2). Briefly: Biacore sensorgrams with fitted curves, ICOS-L on dimeric human ICOS.
Assay [15] addresses T1, human ICOS ligand (B7-H2). The assay can be described thus: Biacore (SPR), human ICOS-L on dimeric human ICOS.

Sequence of human FcγR IIa (R131) (human) (P12318 36-218 H167R limits assumed): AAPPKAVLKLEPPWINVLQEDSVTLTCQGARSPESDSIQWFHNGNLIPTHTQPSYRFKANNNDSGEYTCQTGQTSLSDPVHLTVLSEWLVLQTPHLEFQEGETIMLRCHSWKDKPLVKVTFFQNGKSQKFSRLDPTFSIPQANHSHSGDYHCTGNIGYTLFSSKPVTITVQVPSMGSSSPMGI
Sequence of human FcγR IIb (human) (P31994 46-217 limits assumed): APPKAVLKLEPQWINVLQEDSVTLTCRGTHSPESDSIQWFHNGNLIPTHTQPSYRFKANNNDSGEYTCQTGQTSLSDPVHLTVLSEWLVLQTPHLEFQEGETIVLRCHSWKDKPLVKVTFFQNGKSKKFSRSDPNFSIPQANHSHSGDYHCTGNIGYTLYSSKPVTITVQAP

As for B1, the binding result in assay [1] was “binds”.

As for B2, the Kd turned out to be 0.95 nM in [2]; 1.34 nM in assay [4]; 2500 nM in assay [8]; 645 nM with human FcγR I (human); 1470 nM with human FcγR IIb (human). Also, the results for the kon in assay [3] and in assay [10] were 297000 M⁻¹ s⁻¹ and 391000 M⁻¹ s⁻¹, respectively. Also, the koff in [5] is 0.000371 s⁻¹; in [6] it was 0.000396 s⁻¹. Also, the stoichiometry in assay [7] was 0.5; in assay [13] it was 0.6. Moreover, the “IC50 (read off the curve)” value in assay [9] and in assay [11] was about 2 µg/mL in each case. Also, the “EC50 of IFNγ induction, isolated human CD4+ T cells, immobilized format, first donor” value with human ICOS on cells came out at 3.8 µg/mL. Also, the “EC50 of IFNγ induction, isolated human CD4+ T cells, immobilized format, second donor” value in the assay with human ICOS on cells came out at 4.5 µg/mL. In addition, the “EC50 of IFNγ induction, isolated human CD4+ T cells, soluble format, first donor” value with human ICOS on cells turned out to be 6 µg/mL. For the same molecule, the “EC50 of IFNγ induction, isolated human CD4+ T cells, soluble format, second donor” value with human ICOS on cells turned out to be 4.3 µg/mL. For the same molecule, in assay [12], the “fold higher affinity than native ICOS-L/CD275” value was about 17 fold.

B3: the equilibrium dissociation constant (Kd) in assay [14] and in [15] was 22.6 nM throughout.

By Kd is commonly meant the concentration at which binding is half-saturated. The term kon denotes a measure of how fast the partners come together. One may read the koff as the first-order rate constant of dissociation.
